{"source": "paper PMC10814836", "target": "lamin A/C (human (endogenous in primary myoblasts)) (UniProt P02545)", "sequence (P02545 1-646)": "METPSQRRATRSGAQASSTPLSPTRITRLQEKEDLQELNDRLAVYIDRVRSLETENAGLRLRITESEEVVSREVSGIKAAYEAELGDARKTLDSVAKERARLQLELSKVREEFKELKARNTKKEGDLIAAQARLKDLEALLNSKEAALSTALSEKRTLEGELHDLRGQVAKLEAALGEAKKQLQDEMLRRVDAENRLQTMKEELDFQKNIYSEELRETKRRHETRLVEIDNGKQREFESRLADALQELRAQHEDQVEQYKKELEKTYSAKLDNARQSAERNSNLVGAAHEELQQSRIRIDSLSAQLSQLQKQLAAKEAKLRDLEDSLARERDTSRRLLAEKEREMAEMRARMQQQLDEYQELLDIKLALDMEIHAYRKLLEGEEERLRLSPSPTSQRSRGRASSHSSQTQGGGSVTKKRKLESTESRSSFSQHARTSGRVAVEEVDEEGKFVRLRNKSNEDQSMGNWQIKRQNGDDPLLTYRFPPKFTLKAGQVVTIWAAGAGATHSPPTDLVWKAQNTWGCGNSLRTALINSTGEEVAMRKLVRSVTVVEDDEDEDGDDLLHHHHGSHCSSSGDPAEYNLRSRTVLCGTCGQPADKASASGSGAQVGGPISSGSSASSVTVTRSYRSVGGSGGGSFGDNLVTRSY", "assay": "proximity ligation; in situ PLA (Duolink) on methanol-fixed human myoblasts after uniaxial cyclic stretching (10% strain, 1 Hz, 4 h); anti-lamin A/C with anti-desmin or anti-plectin 1; 100 nuclei counted per replicate", "data": [{"substance": "plectin 1 (natural protein)", "values": [{"measurement": "increase of PLA signal relative to non-stimulated cells", "value": 64, "unit": "%"}]}]}
